According to US20170218389A1, “METHODS AND COMPOSITIONS FOR STOMATA REGULATION, PLANT IMMUNITY, AND DROUGHT TOLERANCE” (priority 2016, published 2017):
Values belong to the molecule of their own block, whether it stands above or below them.

Key:
[1] = test system: stomata of Arabidopsis epidermal peels; experiment: Stomatal aperture in epidermal peels of Col-0 and AtGCN4 overexpressor lines; type: cell-based; details: coronatine treatment
Method: A representative histogram is depicted of stomatal aperture in Arabidopsis plant epidermal peels from wild-type Col-0 and GCN4-overexpressing (AtGCN4-OE6 and AtGCN4-OE16) lines measured 4 hours after treatment with MES buffer, COR, ABA, or COR+ABA.
Upon detection of PAMPs, stomata rapidly closes to prevent entry of the pathogen into apoplast (Melotto et al., 2006; Lee et al., 2013). […] Epidermal peels of AtGCN4 overexpressing lines were used to investigate whether stomata reopen after treatment with MES buffer (stomata opening buffer; control) or the host pathogen P. syringae pv. tomato DC3000. In wild-type Col-0, stomata reopened 3 hpi, while in the AtGCN4 overexpressor lines (AtGCN4-OE6 and AtGCN4-OE16), stomata remained closed even 4 hpi with P. syringae pv. tomato DC3000. Stomatal aperture was measured after ABA and coronatine treatments in order to investigate stomatal function in AtGCN4 overexpressor lines. ABA treatment induces stomatal closure in plants. After ABA treatment, the stomatal aperture size was reduced due to closing in both wild-type Col-0 and the AtGCN4 overexpressor lines.

[2] = biological target: T1, AtGCN4 (Arabidopsis thaliana GCN4, general control non-repressible 4, At3G54540) (Arabidopsis thaliana, UniProt Q9M1H3 1-723); experiment: title of Example 19 (yeast two-hybrid, BiFC)
T1 construct: Yeast two-hybrid fusion; in BiFC the C-terminal half of YFP was fused to the N-terminus of AtGCN4 (c-YFP-AtGCN4); also called c-YFP-AtGCN4
T1 sequence: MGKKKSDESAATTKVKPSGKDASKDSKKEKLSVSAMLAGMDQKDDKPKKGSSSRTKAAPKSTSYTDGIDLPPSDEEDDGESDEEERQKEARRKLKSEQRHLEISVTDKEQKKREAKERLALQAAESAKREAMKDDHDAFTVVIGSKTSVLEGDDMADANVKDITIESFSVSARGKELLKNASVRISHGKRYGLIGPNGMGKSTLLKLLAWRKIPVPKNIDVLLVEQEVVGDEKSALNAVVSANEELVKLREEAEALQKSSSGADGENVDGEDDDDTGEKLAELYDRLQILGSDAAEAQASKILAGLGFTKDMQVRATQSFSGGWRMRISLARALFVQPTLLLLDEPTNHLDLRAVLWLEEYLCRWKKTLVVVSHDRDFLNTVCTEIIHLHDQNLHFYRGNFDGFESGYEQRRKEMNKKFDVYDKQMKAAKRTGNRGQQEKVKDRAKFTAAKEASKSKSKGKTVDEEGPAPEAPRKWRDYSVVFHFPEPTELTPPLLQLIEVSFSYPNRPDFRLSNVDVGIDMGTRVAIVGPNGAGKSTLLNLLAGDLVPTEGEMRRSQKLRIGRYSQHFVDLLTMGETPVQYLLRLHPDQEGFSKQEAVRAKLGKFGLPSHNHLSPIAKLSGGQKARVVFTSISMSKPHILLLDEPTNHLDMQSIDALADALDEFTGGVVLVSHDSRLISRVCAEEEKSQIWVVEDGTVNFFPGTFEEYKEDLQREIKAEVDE
Text: Stable transgenic lines were developed expressing GFP fused to the C-terminal end of AtGCN4 and driven under its native promoter. AtGCN4-GFP localized in guard cells, plasma membrane, and cytoplasm. Without being limited by theory, as AtGCN4 localized in the plasma membrane and guard cells, and plays role in the stomatal function, the present inventors reasoned that AtGCN4 interacts with other proteins responsible for stomatal function, such as SLAC1 and RIN4. SLAC1 closes stomata on ABA signaling (Vahisalu et al., 2008) and RIN4 activates a plasma membrane H⁺-ATPase and opens stomata (Liu et al., 2009). A yeast two-hybrid system between GCN4:SLAC1 and GCN4:RIN4 was used to investigate potential protein-protein interactions. AtGCN4 interacted with SLAC1 and RIN4. A BiFC assay (Hu et al., 2002) was used to verify these interactions in planta. AtGCN4 was co-transformed in yeast with either SLAC1 or RIN4 to observe protein-protein interaction using a yeast two-hybrid system. […] Protein-protein interactions were observed as yellow fluorescence with an equivalent bright field image. […] Protein-protein interactions were observed as yellow fluorescence while the plasma membrane was visualized as red fluorescence. […]

[3] = biological target: T2, Jasmonate-Zim-Domain Protein 9 (JAZ9, At1g70700), full-length, Q8W4J8
T2 chain: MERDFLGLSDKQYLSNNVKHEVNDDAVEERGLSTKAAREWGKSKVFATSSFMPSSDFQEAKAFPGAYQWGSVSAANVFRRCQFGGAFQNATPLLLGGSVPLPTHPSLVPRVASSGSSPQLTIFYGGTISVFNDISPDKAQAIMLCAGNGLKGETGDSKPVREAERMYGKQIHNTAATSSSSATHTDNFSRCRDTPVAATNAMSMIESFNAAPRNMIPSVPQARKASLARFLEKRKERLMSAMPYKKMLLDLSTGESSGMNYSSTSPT

Molecule: CC[C@H]1C=C(C(=O)N[C@@]2(C(=O)O)C[C@@H]2CC)[C@H]2CCC(=O)[C@H]2C1 [coronatine]
Stomatal aperture size ([1]; Col-0 plants): increased aperture size
Stomatal aperture size ([1]; GCN4 overexpressor lines): did not increase

B2: His-tagged NHR1A protein expressed in E. coli (full-length recombinant AtNHR1A, N-terminal His-tagged fusion protein) (protein)
chain: MTIVSTCCPFGLSNVTKCINFVQIKEAKTMVKYNFKKITVVPNGKQFVDIVLSRTQRQTPTVVHKGDRICKLRSFYMRKVKFTESNFNEKLSAIIDEFPRLKEIQPFYEDLLHVLYNKDHYKLALGQVNTAKNKISKIAMDYVKLLKHGDSLYRCKCLKVAALGRMCTVMKGIGPSLAYLEQVRQHIARLPSIDPNTRTLLICGCPNVGKSSFMNKVTRADVAVQPYAFTTKSLFLGHTDYKCLRYQVIDTPGLLDREIEDRNIIELCSITALAHIRAAVLFFLDISGSCGYTIAQQASLFHNIKSVFKNKPLVIVCNKTDLMPMENLSEEDRKLIEEMKDEAMKTEMGASEEAVILEMSTLTEEGVMSRLLDQRVAAKMKSKKIGDHLNRFHVAMPKSRDDQERLPCIPQVAGEKEKRKTEKDLEDENGGAGVYSASLKKNYILAKEEWKDDIIPEICDCHNVADFVDSDILNRLEELTSEESLRKAEEEEVGFEIEGEELTEKEKNDLAAIRKKKALLIEESRLKKSNAQNRAAVPRKFDKDKKFTRKRMGRELSSLGLDPSSALNRARSKSRGRKRERYDDLSNDAMDVDVNDDEQHKKKKMCLRSKSRSLSRSRSVSRPPHEVVPGEGFKDSSQKIKAIKIGHKSHRKRDKAARRGEADRVIPSLKPKHLFSGKRGNGKNQRR
rate of GTP hydrolysis [3]: in the presence of JAZ9, the rate of GTP hydrolysis significantly decreased

Now from value to molecule:

binding result [2]: binds
B1: RIN4 (Rpm1 Interaction Protein 4) (other, UniProt Q8GYN5 1-211, looked up)
chain: MARSNVPKFGNWEAEENVPYTAYFDKARKTRAPGSKIMNPNDPEYNSDSQSQAPPHPPSSRTKPEQVDTVRRSREHMRSREESELKQFGDAGGSSNEAANKRQGRASQNNSYDNKSPLHKNSYDGTGKSRPKPTNLRADESPEKVTVVPKFGDWDENNPSSADGYTHIFNKVREERSSGANVSGSSRTPTHQSSRNPNNTSSCCCFGFGGK
notes: Yeast two-hybrid fusion; in BiFC the N-terminal half of YFP was fused to the C-terminus of RIN4 (RIN4-nYFP); also called RIN4-nYFP

binding result [2]: binds
B3: SLAC1 (Slow Anion Channel-Associated 1) (other, UniProt Q9LD83 1-556, looked up)
chain: MERKQSNAHSTFADINEVEDEAEQELQQQENNNNKRFSGNRGPNRGKQRPFRGFSRQVSLETGFSVLNRESRERDDKKSLPRSGRSFGGFESGGIINGGDGRKTDFSMFRTKSTLSKQKSLLPSIIRERDIENSLRTEDGETKDDSINENVSAGRYFAALRGPELDEVKDNEDILLPKEEQWPFLLRFPIGCFGICLGLSSQAVLWLALAKSPATNFLHITPLINLVVWLFSLVVLVSVSFTYILKCIFYFEAVKREYFHPVRVNFFFAPWVVCMFLAISVPPMFSPNRKYLHPAIWCVFMGPYFFLELKIYGQWLSGGKRRLCKVANPSSHLSVVGNFVGAILASKVGWDEVAKFLWAVGFAHYLVVFVTLYQRLPTSEALPKELHPVYSMFIAAPSAASIAWNTIYGQFDGCSRTCFFIALFLYISLVARINFFTGFKFSVAWWSYTFPMTTASVATIKYAEAVPGYPSRALALTLSFISTAMVCVLFVSTLLHAFVWQTLFPNDLAIAITKRKLTREKKPFKRAYDLKRWTKQALAKKISAEKDFEAEEESHH
notes: Yeast two-hybrid fusion; in BiFC the N-terminal half of YFP was fused to the C-terminus of SLAC1 (SLAC1-nYFP); also called SLAC1-nYFP
